Measured values reported in patent US20250223358A1 (ANTENGENE BIOLOGICS, published 2025).
Positions count from the first letter of the chain named. Names and notes keep the numbering of the source. Like-named read-outs stand apart in the source and are kept apart here.

Columns and labels:
cynomolgus CD3 [1] = target: T1, cynomolgus CD3 (cynomolgus (Macaca fascicularis), UniProt Q95LI5 22-198; Q95LI8 22-171; Q95LI7 23-181); assay: FACS on 293T-cynoCD3mix cells
T1 construct: whole, on cells; composition of the 'mix' not defined; also called cynoCD3

human CD3 [2] = target: T2, human CD3 (human, UniProt P07766 23-207; P04234 22-171; P09693 23-182); assay: cell-based or functional assay
human CD3 [3] = target: T2, human CD3; assay: FACS on Jurkat cells
human CD3 [4] = target: T2, human CD3; assay: FACS on Jurkat cells; remark: listed apart in the source
human CD3 [5] = target: T2, human CD3; assay: cell-based or functional assay; remark: listed apart in the source
human CD3 [6] = target: T2, human CD3; assay: FACS on Jurkat cells; remark: listed apart in the source
human CD3 [7] = target: T2, human CD3; assay: cell-based or functional assay; remark: listed apart in the source
human CD3 [8] = target: T2, human CD3; assay: FACS on Jurkat cells; remark: listed apart in the source
cynomolgus CD3 [9] = target: T1, cynomolgus CD3; assay: FACS on 293T-cynoCD3mix cells; remark: listed apart in the source

T1 sequence (Q95LI5 22-198, chain 1 of 3): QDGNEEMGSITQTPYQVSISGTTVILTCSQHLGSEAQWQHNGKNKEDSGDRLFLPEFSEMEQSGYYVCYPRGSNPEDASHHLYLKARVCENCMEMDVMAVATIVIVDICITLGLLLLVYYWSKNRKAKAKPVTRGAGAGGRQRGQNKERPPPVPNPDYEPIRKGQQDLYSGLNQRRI
T1 sequence (Q95LI8 22-171, chain 2 of 3): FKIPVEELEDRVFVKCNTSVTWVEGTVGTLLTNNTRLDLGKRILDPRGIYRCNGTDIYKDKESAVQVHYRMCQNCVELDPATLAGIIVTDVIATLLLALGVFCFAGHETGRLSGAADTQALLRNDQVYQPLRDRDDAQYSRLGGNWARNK
T1 sequence (Q95LI7 23-181, chain 3 of 3): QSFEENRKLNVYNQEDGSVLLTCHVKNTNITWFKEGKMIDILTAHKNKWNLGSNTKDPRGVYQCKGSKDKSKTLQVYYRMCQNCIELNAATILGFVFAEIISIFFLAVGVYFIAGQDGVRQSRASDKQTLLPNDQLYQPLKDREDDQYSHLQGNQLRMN
T2 sequence (P07766 23-207, chain 1 of 3): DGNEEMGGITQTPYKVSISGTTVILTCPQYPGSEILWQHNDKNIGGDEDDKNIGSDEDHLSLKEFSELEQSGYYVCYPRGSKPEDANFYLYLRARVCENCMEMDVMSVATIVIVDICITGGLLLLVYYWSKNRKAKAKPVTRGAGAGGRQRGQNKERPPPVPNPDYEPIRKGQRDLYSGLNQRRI
T2 sequence (P04234 22-171, chain 2 of 3): as the sequence (Q95LI8 22-171, chain 2 of 3) above, with V5I, K15N, V20I, T32S, N33D, N34I, A64T, N74S, L83V, R141H counted along it
T2 sequence (P09693 23-182, chain 3 of 3): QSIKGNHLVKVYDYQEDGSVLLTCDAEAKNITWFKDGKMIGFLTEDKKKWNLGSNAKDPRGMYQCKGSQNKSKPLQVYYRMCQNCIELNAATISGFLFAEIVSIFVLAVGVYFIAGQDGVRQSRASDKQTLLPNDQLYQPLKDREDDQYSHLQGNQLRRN

B1: hu147E2-L1H3 (antibody, V domains shown)
VH: EVQLVQSGAEVKKPGSSVKVSCKASGYTFTSYWMHWVRQAPGQGLEWMGNINPSNGATNYNEKFKSRVTLTVDKSTSTAYMELSSLRSEDTAVYYCARDRSSQYYFDYWGQGTTVTVSS
VL: DIVMTQSPDSLAVSLGERATINCKSSQSLLNSRSRKNYLAWYQQKPGQPPKLLIYWASTRESGVPDRFSGSGSGTDFTLTISSLQAEDVAVYYCTQSYTLRTFGGGTKVEIK
notes: humanized 147E11E2; also called hu14E2-L1H3
Cynomolgus CD3 [1]
  EC50: 1.51 nM
  Top signal: 19200
Human CD3 [2]
  EC50_Fold change (Jurkat-NFAT-luciferase activation, normalized to ch147E11E2): 1.98 fold
  Top FACS signal_Fold change (Jurkat-NFAT-luciferase activation, normalized to ch147E11E2): 1 fold

B2: hu147E2-L3H3 (antibody, V domains shown)
VH: B1 VH
VL: DIQMTQSPSSLSASVGDRVTITCKSSQSLLNSRSRKNYLAWYQQKPGKAPKLLIYWASTRESGVPSRFSGSGSGTDFTLTISSLQPEDFATYYCTQSYTLRTFGGGTKVEIK
notes: humanized 147E11E2; also called hu14E2-L3H3
Cynomolgus CD3 [1]
  EC50: 1.63 nM
  Top signal: 19000
Human CD3 [2]
  EC50_Fold change (Jurkat-NFAT-luciferase activation, normalized to ch147E11E2): 1.36 fold
  Top FACS signal_Fold change (Jurkat-NFAT-luciferase activation, normalized to ch147E11E2): 0.68 fold
Human CD3 [3]
  EC50: 0.659 nM
  Top FACS signal: 2680

B3: hu147E2-L1H2 (antibody, V domains shown)
VH: B1 VH with L70I, V72A
VL: B1 VL
notes: humanized 147E11E2; also called hu14E2-L1H2
Cynomolgus CD3 [1]
  EC50: 2.01 nM
  Top signal: 19700

B4: hu147E2-L2H3 (antibody, V domains shown)
VH: B1 VH
VL: B1 VL with P49S
notes: humanized 147E11E2; also called hu14E2-L2H3
Cynomolgus CD3 [1]
  EC50: 1.86 nM
  Top signal: 21000
Human CD3 [2]
  EC50_Fold change (Jurkat-NFAT-luciferase activation, normalized to ch147E11E2): 1.65 fold
  Top FACS signal_Fold change (Jurkat-NFAT-luciferase activation, normalized to ch147E11E2): 0.78 fold

B5: hu147E2-L3H2 (antibody, V domains shown)
VH: B1 VH with L70I, V72A
VL: B2 VL
notes: humanized 147E11E2; also called hu14E2-L3H2
Cynomolgus CD3 [1]
  EC50: 1.77 nM
  Top signal: 19200
Human CD3 [2]
  EC50_Fold change (Jurkat-NFAT-luciferase activation, normalized to ch147E11E2): 1.66 fold
  Top FACS signal_Fold change (Jurkat-NFAT-luciferase activation, normalized to ch147E11E2): 0.76 fold
Human CD3 [3]
  EC50: 0.891 nM
  Top FACS signal: 2730

B6: hu147E2-L1H3a (antibody, V domains shown)
VH: B1 VH with N55Q
VL: B1 VL
notes: humanized 147E11E2 with N55Q in HCDR2 (deamidation site removed); also called hu14E2-L1H3a
Cynomolgus CD3 [1]
  EC50: 1.66 nM
  Top signal: 20700

B7: hu147E2-L3H4 (antibody, V domains shown)
VH: B1 VH with M48I, V68A
VL: B2 VL
notes: humanized 147E11E2; also called hu14E2-L3H4
Cynomolgus CD3 [1]
  EC50: 1.29 nM
  Top signal: 16100
Human CD3 [2]
  EC50_Fold change (Jurkat-NFAT-luciferase activation, normalized to ch147E11E2): 2.12 fold
  Top FACS signal_Fold change (Jurkat-NFAT-luciferase activation, normalized to ch147E11E2): 0.6 fold
Human CD3 [3]
  EC50: 0.671 nM
  Top FACS signal: 2680

B8: hu147E2-L2H4 (antibody, V domains shown)
VH: B1 VH with M48I, V68A
VL: B1 VL with P49S
notes: humanized 147E11E2; also called hu14E2-L2H4
Cynomolgus CD3 [1]
  EC50: 2.02 nM
  Top signal: 21200
Human CD3 [2]
  EC50_Fold change (Jurkat-NFAT-luciferase activation, normalized to ch147E11E2): 1.24 fold
  Top FACS signal_Fold change (Jurkat-NFAT-luciferase activation, normalized to ch147E11E2): 0.99 fold

B9: hu147E2-L1H3b (antibody, V domains shown)
VH: B1 VH with N55S
VL: B1 VL
notes: humanized 147E11E2 with N55S in HCDR2 (deamidation site removed); also called hu14E2-L1H3b
Cynomolgus CD3 [1]
  EC50: 1.68 nM
  Top signal: 21100
Human CD3 [2]
  EC50_Fold change (Jurkat-NFAT-luciferase activation, normalized to ch147E11E2): 1.73 fold
  Top FACS signal_Fold change (Jurkat-NFAT-luciferase activation, normalized to ch147E11E2): 0.87 fold

B10: hu147E2-L1H4 (antibody, V domains shown)
VH: B1 VH with M48I, V68A
VL: B1 VL
notes: humanized 147E11E2; also called hu14E2-L1H4
Cynomolgus CD3 [1]
  EC50: 1.31 nM
  Top signal: 18700
Human CD3 [2]
  EC50_Fold change (Jurkat-NFAT-luciferase activation, normalized to ch147E11E2): 1.21 fold
  Top FACS signal_Fold change (Jurkat-NFAT-luciferase activation, normalized to ch147E11E2): 0.92 fold

B11: hu147E2-L2H2 (antibody, V domains shown)
VH: B1 VH with L70I, V72A
VL: B1 VL with P49S
notes: humanized 147E11E2; also called hu14E2-L2H2
Cynomolgus CD3 [1]
  EC50: 1.64 nM
  Top signal: 20500
Human CD3 [2]
  EC50_Fold change (Jurkat-NFAT-luciferase activation, normalized to ch147E11E2): 1.4 fold
  Top FACS signal_Fold change (Jurkat-NFAT-luciferase activation, normalized to ch147E11E2): 0.9 fold

B12: BMK-TCB (antibody, V domains shown)
VH: not shown
VL: QAVVTQEPSLTVSPGGTVTLTCGSSTGAVTTSNYANWVQEKPGQAFRGLIGGTNKRAPGTPARFSGSLLGGKAALTLSGAQPEDEAEYYCALWYSNLWVFGGGTKLTVL
notes: benchmark anti-CD3 antibody; also called anti-CD3 antibody developed by Roche
Human CD3 [4]
  EC50: 1.3 nM
  Top FACS signal: 2570
Human CD3 [5]
  EC50 (Jurkat-NFAT-luciferase activation): 59.4 nM
  Top signal (Jurkat-NFAT-luciferase activation): 753
Human CD3 [2]
  EC50_Fold change (Jurkat-NFAT-luciferase activation, normalized to ch147E11E2; mean): 2.24 fold
  Top FACS signal_Fold change (Jurkat-NFAT-luciferase activation, normalized to ch147E11E2; mean): 0.5 fold
Human CD3 [6]
  EC50: 1.91 nM
  Top signal: 3140
Human CD3 [7]
  EC50_Fold change (Jurkat-NFAT-luciferase activation, normalized to ch40-C12-C10-E9; mean): 8.17 fold
  Top FACS signal_Fold change (Jurkat-NFAT-luciferase activation, normalized to ch40-C12-C10-E9; mean): 0.48 fold
Human CD3 [3]
  EC50: 1.35 nM
  Top FACS signal: 2370
Human CD3 [8]
  EC50: 1.6 nM
  Top FACS signal: 1740

B13: BMK-B219 (antibody, V domains shown)
VH: EVQLVESGGGLVQPGGSLRLSCAASGFTFNTYAMNWVRQAPGKGLEWVARIRSKYNNYATYYAASVKGRFTISRDDSKNSLYLQMNSLKTEDTAVYYCARHGNFGNSYVSWFAYWGQGTLVTVSS
VL: B12 VL with A2T, G23R, E40Q, F46P, A80V
notes: benchmark anti-CD3 antibody; also called anti-CD3 antibody developed by JNJ (Johnson & Johnson)
Human CD3 [5]
  EC50 (Jurkat-NFAT-luciferase activation): 68.4 nM
  Top signal (Jurkat-NFAT-luciferase activation): 811
Human CD3 [6]
  EC50: 1.47 nM
  Top signal: 3000
Cynomolgus CD3 [9]
  EC50: 4.34 nM
  Top signal: 60000

B14: ch126A11A4 (antibody, V domains shown)
VH: QVQLQQPGTELVKPGASVKLSCKASGYTFTSYWMHWVKQRPEQGLEWIGNINPSNGDTNYNEKFKSKATLTVDKASNTAYMQLSSLTSEDSAVYYCGRDRSSQYYFDYWGQGTTLTVSS
VL: DIVMSQSPSSLAVSAGEKVTMSCKSSQSLLNSRTRKNYLAWYQQKPGQSPKLLIYWASTRESGVPDRFTGSGSGTDFTLTISSVQAEDLAVYFCKQSFILRTFGGGTKLEIK
Human CD3 [5]
  EC50 (Jurkat-NFAT-luciferase activation): 33.6 nM
  Top signal (Jurkat-NFAT-luciferase activation): 682
Human CD3 [6]
  EC50: 0.567 nM
  Top signal: 1760
Cynomolgus CD3 [9]
  EC50: 2.91 nM
  Top signal: 57000

B15: ch124E3D6 (antibody, V domains shown)
VH: B14 VH with E42G, A75S, N77S, G97A
VL: B14 VL with F93Y, F98Y, I99N
Human CD3 [5]
  EC50 (Jurkat-NFAT-luciferase activation): 32.4 nM
  Top signal (Jurkat-NFAT-luciferase activation): 482
Cynomolgus CD3 [9]
  EC50: 2.64 nM
  Top signal: 45800

B16: ch140D2B10 (antibody, V domains shown)
VH: B14 VH with E42G, D57E, T58S, A75S, N77S, S91Y, G97A
VL: B14 VL with F93Y, F98Y, I99T
Cynomolgus CD3 [9]
  EC50: 2.81 nM
  Top signal: 52900

B17: ch147E11E2 (antibody, V domains shown)
VH: B14 VH with A16T, E42G, D57A, A75S, N77S, G97A
VL: B14 VL with T34S, F93Y, K95T, F98Y, I99T
Cynomolgus CD3 [1]
  EC50: 1.23 nM
  Top signal: 17800
Human CD3 [5]
  EC50 (Jurkat-NFAT-luciferase activation): 33 nM
  Top signal (Jurkat-NFAT-luciferase activation): 421
Human CD3 [2]
  EC50_Fold change (Jurkat-NFAT-luciferase activation, normalized to ch147E11E2): 1 fold
  Top FACS signal_Fold change (Jurkat-NFAT-luciferase activation, normalized to ch147E11E2): 1 fold
Human CD3 [6]
  EC50: 0.419 nM
  Top signal: 2780
Cynomolgus CD3 [9]
  EC50: 2.19 nM
  Top signal: 53900
Human CD3 [3]
  EC50: 0.649 nM
  Top FACS signal: 2780

B18: ch147C6F3 (antibody, V domains shown)
VH: B14 VH with T30D, E42G, I51L, D57E, T58I, S66H, A75S, N77S, G97S
VL: B14 VL with M21L, P46S, I54M, S82T, S83N, F93Y, F98Y
Human CD3 [5]
  EC50 (Jurkat-NFAT-luciferase activation): 57.4 nM
  Top signal (Jurkat-NFAT-luciferase activation): 428
Human CD3 [6]
  EC50: 1.77 nM
  Top signal: 2280
Cynomolgus CD3 [9]
  EC50: 4.15 nM
  Top signal: 55200

B19: ch127E2D3 (antibody, V domains shown)
VH: QVQLQQPGTELVKPGASVKLSCKASGYTFTSYWMHWVKQRPGEGLEWIGNIYPGSSSINYNEKFKSKATLTVDKSSSTAYMQLSSLTSEDSAVYYCARDRSSQYYFDYWGQGTTLTVSS
VL: B14 VL with F93Y, K95T, F98Y, I99N
Human CD3 [5]
  EC50 (Jurkat-NFAT-luciferase activation): 61.7 nM
  Top signal (Jurkat-NFAT-luciferase activation): 337
Cynomolgus CD3 [9]
  EC50: 2.33 nM
  Top signal: 46900

B20: ch133B4C7 (antibody, V domains shown)
VH: B14 VH with E42G, Y60F, A75S, N77S, G97A
VL: B14 VL with K24N, F93Y, F98Y, I99T
Human CD3 [5]
  EC50 (Jurkat-NFAT-luciferase activation): 28 nM
  Top signal (Jurkat-NFAT-luciferase activation): 290
Cynomolgus CD3 [9]
  EC50: 2.81 nM
  Top signal: 45200
